Numbering of substitutions follows the chain as printed.
B1: Sso7d construct 4.1A03 (EGFR, Purif. No. 2) (designed binder)
chain: ATVKFTYQGEEKQVDISKIKIVDRYGQYIHFRYDEGGGANGWGWVSEKDAPKELLQMLEKQ
notes: Purified from E. coli on anti-APP columns; It is NGS hit no; 3, at 2.18%; also called Hit NO; not shown: APP tag of the vector
B2: Sso7d construct 4.1A02 (EGFR, Purif. No. 1) (designed binder)
chain: B1 chain with Y28W, R32N, N40Y
notes: Purified from E. coli BL21(DE3) on anti-APP columns; It was found 1x on the plate and was not in the NGS Top30
B3: Sso7d construct 4.4E10 (EGFR, Purif. No. 7) (designed binder)
chain: B1 chain with R32Y, N40D
notes: Purified from E. coli on anti-APP columns; not shown: APP tag of the vector
B4: Sso7d construct 4.1H02 (EGFR, Purif. No. 4) (designed binder)
chain: B1 chain with Y28W, N40D
notes: as for B3
B5: Sso7d construct 4.2A08 (EGFR, Purif. No. 5) (designed binder)
chain: B1 chain with Y28N, R32Y
notes: Purified from E. coli on anti-APP columns; It is NGS hit 1, at 4.56%; also called Hit 1 NGS; not shown: APP tag of the vector
B6: Sso7d construct 4.2B11 (EGFR, Purif. No. 6) (designed binder)
chain: B1 chain with Y28N, R32N, N40W
notes: Purified from E. coli on anti-APP columns; It is NGS hit no; 24, at 0.89%; also called Hit No. 24; not shown: APP tag of the vector

Molecular target: T1, human EGFR on HKB11 cells stably over-expressing hEGFR (human, UniProt P00533 25-1210)
T1 construct: whole, on cells; The control lines were HKB11 w.t. cells, which express EGFR endogenously, and HKB11 EGFR knockout cells; also called HKB11_EGFR; HKB11-EGFR transfected
Assay: FACS of purified APP-tagged Sso7d on EGFR-overexpressing HKB11 cells versus EGFR knock out cells

Binder | binding result
B1 | binds
B2 | binds
B3 | binds
B4 | binds
B5 | binds
B6 | binds

Reference: patent US20250353883A1 (Novartis, published 2025)
